From PMC3777412 (Nature communications, 2013)
Where no end group is shown, it is not given here. [ ]: non-standard residue; d: D form. The star is where a group is joined. Biotin = O=C1N[C@H]2[C@H](CS[C@H]2CCCCC(=O)*)N1; pY = N[C@@H](Cc1ccc(OP(=O)(O)O)cc1)C(=O)O

Target: Grb2, histidine-tagged, purified (UniProt P62993 1-217)
Assay: SPR

Kd	Binder
0.118 ± 0.0103 µM	Biotin-ASASAKGHE[pY]TNIKYS [pY542 peptide]
0.0685 ± 0.0087 µM	Biotin-ASASASARV[pY]ENVGLM [pY580 peptide]
